Assay results reported in paper PMC8093215.

Target: human DNMT1 BAH1 domain (residues 728-900), Y775A (human) (UniProt P26358)
Assay: ITC; 1 mM H4K20me peptide titrated over 0.1 mM hDNMT1 BAH1 or BAH2 domain; 25 mM Tris-HCl pH 7.5, 100 mM NaCl, 2 mM DTT; 5 °C; single-site binding mode

Chain of human DNMT1 BAH1 domain (residues 728-900), Y775A (human) (P26358 728-900 Y775A): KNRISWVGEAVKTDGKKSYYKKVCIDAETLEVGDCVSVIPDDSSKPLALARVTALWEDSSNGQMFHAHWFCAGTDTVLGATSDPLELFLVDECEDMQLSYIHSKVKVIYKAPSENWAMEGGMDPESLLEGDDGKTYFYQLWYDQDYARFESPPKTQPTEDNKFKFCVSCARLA

Kd: 361 µM
stoichiometry N: 1
Substance: H4(14-25)K20me3 peptide (from UniProt P62805 15-26)
